Assay results taken from paper PMC10304930.

Assays:
[1] = target: authentic main protease (M^pro) from SARS-CoV, without tag (SARS-CoV) (UniProt P0C6X7); test: SEC; […]; 40 mM Tris-HCl, 100 mM NaCl, 1 mM DTT, pH 8.0; 0.5 mL/min; […]
[2] = target: authentic main protease (M^pro) from SARS-CoV, without tag (SARS-CoV) (UniProt P0C6X7)
[3] = target: tagged main protease from SARS-CoV with 34 extra amino acids at the N-terminus (SARS-CoV) (UniProt P0C6X7)

Substance	stoichiometry N [1]	kcat/Km, FRET-based cleavage assay (Dabcyl/Edans peptide substrate) [2]	kcat/Km, FRET-based cleavage assay (Dabcyl/Edans peptide substrate) [3]
authentic main protease (M^pro) from SARS-CoV, without tag (from UniProt P0C6X7) (enzyme)	2	2790 M⁻¹ s⁻¹	–
tagged main protease from SARS-CoV with 34 extra amino acids at the N-terminus (from UniProt P0C6X7) (enzyme)	–	–	17 M⁻¹ s⁻¹
